According to patent US20240043859A1, “HERBICIDE-RESISTANT PROTEIN, AND GENE AND USE THEREOF” (QINGDAO KINGAGROOT CHEMICAL COMPOUND CO., LTD., priority 2020, published 2024):
Substitutions are numbered along the chain they refer to.

B1: QYD31: AAD-like candidate enzyme, SEQ ID NO. 61 (protein)
chain: MKVEHLTEATFGSVVTDIDLETIDDAEWRELYDLWIERALLVFPGAFLSAEGQDAFARRFGDLEFSRAALSNIGKDGKVHHENDDEVVKSLRGNEGWHIDSTYMPVQAKGAVFSAEIVPSSGAATGWADMRSAYEELDAETRERLADLTAYHSLYYSQGRAGNLPDEPNEDGTYNLYGYHDMEVSLRPLIKIHPITERPSLLIGRHAHDIVGMDPAESESLLDDLNDWACQPPRTYHHQWDVGDAVLWDNRRLQHRGTPFDMTEPRRMWHTRIAGDPSSELALNHHPDTVPSDDVERHPTGTWAC
modifications: Synthetic polypeptide, QYD31, D31
B2: QYD1: AAD-like candidate enzyme; 100.00% identical to US20170022515-0011 (AAD1) (protein)
chain: MAHAALSPLSQRFERIAVQPLTGVLGAEITGVDLREPLDDSTWNEILDAFHTYQVIYFPGQAITNEQHIAFSRRFGPVDPVPLLKSIEGYPEVQMIRREANESGRVIGDDWHTDSTFLDAPPAAVVMRAIDVPEHGGDTGFLSMYTAWETLSPTMQATIEGLNVVHSATRVFGSLYQAQNRRFSNTSVKVMDVDAGDRETVHPLVVTHPGSGRKGLYVNQVYCQRIEGMTDAESKPLLQFLYEHATRFDFTCRVRWKKDQVLVWDNLCTMHRAVPDYAGKFRYLTRTTVGGVRPAR
modifications: Synthetic polypeptide, QYD01, D1
B3: QYD2: AAD-like candidate enzyme; 100.00% identical to US20170009214-0019 (AAD2) (protein)
chain: MTIAIRQLQTHFVGQVSGLDLRKPLTPGEAREVESAMDKYAVLVFHDQDITDEQQMAFALNFGQREDARGGTVTKEKDYRLQSGLNDVSNLGKDGKPLAKDSRTHLFNLGNCLWHSDSSFRPIPAKFSLLSARVVNPTGGNTEFADMRAAYDALDDETKAEIEDLVCEHSLMYSRGSLGFTEYTDEEKQMFKPVLQRLVRTHPVHRRKSLYLSSHAGKIASMSVPEGRLLLRDLNEHATQPEFVYVHKWKLHDLVMWDNRQTMHRVRRYDQSQPRDMRRATVAGTEPTV
modifications: Synthetic polypeptide, QYD02, D2
B4: QYD14: AAD-like candidate enzyme, SEQ ID NO. 27 (protein)
chain: MTTTKTKSFITIKNKRFHYIWLRENCPSCRYAAPYQQLYDPNISDRPEYPQPLSVELNEETLTIDWDETPAHRSVFSVEWLLKNSYDPQPELESDNYIFWERAKLELKPPQTYNAETINNDGWMEQLFSLGFVILENIPPEKLESFLSSIGPIFNADYGTIMPLETRDKTTESLPSRDGCPLPPHHDLSYWGGHRLVEFLYCVENQNSGGESTLVDGFQVAQDFSQDYPQYYQTLLETPVQFWLVDKTHQYRFCNIATILECDRYGNLTTVRFSKRNCRPHLPFEQLEDFYQAYHTFFHYLKKNDYKHQFQLRSHNCLLFQNFRILHGRTAFDPALGKRKLNSGYVDWNFFVGRRNFQ
modifications: Synthetic polypeptide, QYD14, D14
B5: QYD3: AAD-like candidate enzyme; 100.00% identical to US20160002662-0002 (AAD13) (protein)
chain: MSPAFDIAPLDATFGAVVTGVKLADLDDAGWLDLQAAWLEYALLVFPDQHLTREQQIAFARRFGPLEFEMAAISNVRPDGSLRVESDNDDMMKILKGNMGWHADSTYMPVQAKGAVFSAEVVPSVGGQTGFADMRAAYDALDEDLKARVETLQARHSLHYSQSKLGHQTKAADGEYSGYGLHDGPVPLRPLVKIHPETGRKSLLIGRHAHAIPGLEPAESERLLQQLIDFACQPPRIYHHDWAPGDAVLWDNRCLLHQATPWDMTQKRIMWHSRIAGDPASETALAH
modifications: Synthetic polypeptide, QYD03, D3
B6: QYD4: AAD-like candidate enzyme; 99.65% identical to US20100251432-0002 (AAD13 mutant) (protein)
chain: B5 chain with E69A
modifications: Synthetic polypeptide, QYD04, D4
B7: QYD5: AAD-like candidate enzyme, SEQ ID NO. 9 (protein)
chain: MPFAGELPSAIETQVSKILALIAAYRHRSPNVPDRFAQFVPELEKQLADTVSKKEPVRFVLPAFPFKAPVEGNKRKTLGSLPDKAEEIALKTLDGFADSIAEIYEAGATVVLVSDASVYGDLLNVADAEAFTYHQELQKLASSLGLEHLEFVRPGALAGIAPKDAHTLEEYSDHVNKTRNLLDGPLAQDVNPSEDENVQATSKHYDTALPTTDDPEAFKTAMLKRGKAYAKLIASSSETTIRLSIHESNNVGKITLDLFPPSTNPDFITPWHGAVAVLADASVRIVDASTVDMTKFEVITNAEGRPWLLREKSELFNWFGMELDFEPLFPCGMVVRPRNGYGPYKFEDVNMKQVRRLALSTAPLLLRGFTMEIEKEVFRQKARELGEIQMWPFGDILEVRENADFNMNNVLTREAMPFHYDGVFKTIQDEKTGEWISTPPLFQMFRNRAASQQKGGLTLFSSSRNLIPLLGPDSIPLDELRKLKWKTFTVVNEAFGGHELLLPFIASHPETGADTFRFHEPWPESKCISGSSEPTIVQVVGWPAAESDALCAKLTDLLYDRRVAYRHQWTAGDFIFNDNATTHHTRTAFENGHREHWRVHVS
modifications: Synthetic polypeptide, QYD05, D5
B8: QYD70: AAD-like candidate enzyme; 100.00% identical to US20190017066-0048 (protein)
chain: MHAALTPLTNKYRHIDVQPLTGVLGAEITGVDLREPLDDSTWNEILDAFHTYQVIYFPGQAITNEQHIAFSRRFGPVDPVPILKSIEGYPEVQMIRREANESSRYIGDDWHADSTFLDAPPAAVVMRAIEVPEYGGDTGFLSMYSAWETLSPTMQATIEGLNVVHSATKVFGSLYQATNWRFSGTSVKVMDVDAGDRETVHPLVVTHPVTGRRALYCNQVYCQKIQGMTDAESKSLLQFLYEHATQFDFTCRVRWKKDQVLVWDNLCTMHRAVPDYAGKFRYLTRTTVAGDKPSR
modifications: Synthetic polypeptide, QYD70, D70
B9: QYD71: AAD-like candidate enzyme; 100.00% identical to CN109456986-0002 (protein)
chain: MPFQVNQLHPIFAAEMFGCDILKPVTDETRNAVEDAMAKYAVLVIRDQAAASDEDQVRFAKAFGPLELPPDLGMSERTRPTRVHPKLYDVSNLDENGNLDKPDTLRRKFAKGNELFHTDSSFNDLPTKWSMLLAHVVTPTGGNTEFVDTRAAYDALSPSMKEQVEPLSVIHSLTYSRERGGLTGTTVFDRAFPPVTQPLVRTSASGRKALYIGAHAATVVGMDEAAGRTLLDKLISDASRPEYIYSHKWLPGDLVIWDNRCTMHRATEYAYMEDRRDLRRATINEFGEDRVGARPI
modifications: Synthetic polypeptide, QYD71, D71

System: Arabidopsis thaliana
Test: Herbicide resistance of transgenic Arabidopsis thaliana seedlings on plate medium (root growth)
Format: in vivo
Details: Arabidopsis overexpressing the gene
Protocol: Expression in Arabidopsis thaliana was regulated by its AtUbi10 Arabidopsis thaliana ubiquitin promoter and the MAS (mannopine synthase) terminator. Hygromycin resistance gene (HygR=hpt) served as the selection marker.
Preparation of Agrobacterium infection solution: An activated Agrobacterium (GV3101) monoclone was picked and inoculated in 30 ml YEP liquid medium [yeast powder 10 g/L, tryptone 10 g/L, NaCl 5 g/L, 25 mg/L Rifampicin and 50 mg/L Kanamycin], shaking-cultured at 200 rmp/min, 28° C. overnight until the OD600 was about 1.0-1.5, then centrifuged at 6000 rmp/min for 10 min to collect the bacteria, and the supernatant was discarded. Arabidopsis thaliana infection solution (sucrose 50 g/L, Silwet L-77 300 μL/L, no need to adjust pH) was used to resuspend the cells to OD600=0.8 for later use.
Genetic transformation of Arabidopsis thaliana by flower dipping: Before transformation of Arabidopsis thaliana plants, attentions were paid to whether the plants were growing well, the inflorescences were abundant, and no stress response occurred. The first transformation was performed when plants were about 20 cm high. Plants could be properly watered if the soil was dry. The grown siliques were cut off with scissors the day before transformation. The inflorescences of the plants to be transformed were soaked in the above-mentioned Agrobacterium solution for 30 seconds to 1 minute, which was stirred gently during the period. And a layer of liquid film should appear on the infiltrated plant. The transformed plants were cultured in a dark environment for 24 hours, and then taken out and grown in a normal light environment. A second transformation could be performed in the same way a week later.
Seeds were treated with disinfectant for 5 min, washed with sterile water for 5 times and then one part was spread on MS transgenic screening medium (containing 30 μg/mL hygromycin, 100 μg/mL carbenicillin) to screen transgenic seedlings, and the other part was spread on MS medicated medium [containing 250 μg/mL Cefotaxime sodium and 0.3 μM 2,4-D] to screen herbicide-resistant seedlings at mean time. The petri dish spread with seeds was placed at 4° C. for vernalization for 3 days, and taken out to a illumination incubator for cultivation (temperature of 22° C., 16 hours of light, 8 hours of darkness, light intensity of 100-150 μmol/m^2/s, humidity of 75%). After one week, it was observed that the roots of the wild-type control seedlings were not elongated and their growth was inhibited, while the transgenic seedlings had normal root growth, showing drug resistance. The transgenic positive seedlings and herbicide-resistant seedlings were photographed and transplanted into small pots filled with soil for cultivation.
The transgenic lines with the nine vectors, pQY2309, pQY2310, pQY2311, pQY2312, pQY2313, pQY2314, pQY2315, pQY2316 and pQY2317, overexpressing AAD gene in the T2 generation were further tested on plate medium for their resistance to 2,4-D, 2,4-DB sodium and MCPA herbicide. Two events were tested for each transformant.

Which “Resistance of transgenic Arabidopsis thaliana: 2,4-D” value (“Resistance” for short) does the source give for B1 here?
Its value is “Yes”.

Which “Resistance” value does the source give for B2 here?
The value was “Yes”.

For B3, which “Resistance” value is on record?
The value was “Yes”.

With B4 as the molecule, how does the “Resistance” value read?
The value was “Yes”.

With B5 as the molecule, how does the “Resistance” value read?
Its value is “Yes”.

Which “Resistance” value does the source give for B6 here?
The value was “Yes”.

With B7 as the molecule, how does the “Resistance” value read?
Its value is “Yes”.

System: not listed separately
Test: Chromogenic reaction of degrading herbicides in bacteria: 2,4-D
Format: cell-based, Escherichia coli
Details: recombinant E. coli expressing the gene, 2,4-D added to the medium; red = phenols
Protocol: To transform the plasmids to be tested, an AAD12-expressing plasmid and a blank control plasmid pET15b were respectively transformed into the protein expression E. coli BL21(DE3) strains. A monoclone was selected and inoculated in a 10 ml centrifuge tube with 3 ml LB medium, and cultivated at 37° C., 200 rpm for 6-8 hours. The culture medium was added with 0.1 mM IPTG and 2 mM α-ketoglutaric acid, and then 0.5 mM 2,4-D. The temperature was switched to 28° C. and the cultivation continued overnight. In the next morning, 200 μL of each bacteria solution was taken and centrifuged to precipitate thallus, 180 μL of the supernatant was taken and added in a 96-well plate, and 20 μL of borate buffer of pH 10 was added. Then the mixture was added with 2 μL of 8% potassium ferricyanide and mixed well, followed by adding 2 μL of 2% 4-aminoantipyrine, and placed at room temperature for 5 min to observe the color and detect the A510 value.
The bacteria solution also appeared red when 2,4-D was directly added into the medium of AAD12-expressing bacteria, as shown in FIG. 1.
2,4-D was added into these bacteria solutions of AAD gene-expressing recombinant E. coli and cultivation was continued for color development.

For B8, which “Chromogenic reaction of degrading herbicides in bacteria: 2,4-D” value (shortened to “Chromogenic reaction”) is on record?
Its value is “Yes”.

Which “Chromogenic reaction” value does the source give for B2 here?
The value was “Yes”.

For B3, which “Chromogenic reaction” value is on record?
The value was “Yes”.

For B5, which “Chromogenic reaction” value is on record?
The value was “Yes”.

With B6 as the molecule, how does the “Chromogenic reaction” value read?
The value was “Yes”.

Which “Chromogenic reaction” value does the source give for B9 here?
The value was “Yes”.
